Measurements taken from patent publication US7166454 (dated 2007).
Where no end group is shown, it is not given here.

Target: T1, refolded processed β-secretase (BACE) (human, UniProt P56817 43-454, limits assumed)
T1 construct: The processed preparation is an equimolar mixture of two species, LRLPRE; It is C-terminally truncated and lacks the transmembrane domain; It is not glycosylated; also called mamapsin 2
Assay: X-ray structure coordinates of the complex

T1 sequence (P56817 43-454 limits assumed): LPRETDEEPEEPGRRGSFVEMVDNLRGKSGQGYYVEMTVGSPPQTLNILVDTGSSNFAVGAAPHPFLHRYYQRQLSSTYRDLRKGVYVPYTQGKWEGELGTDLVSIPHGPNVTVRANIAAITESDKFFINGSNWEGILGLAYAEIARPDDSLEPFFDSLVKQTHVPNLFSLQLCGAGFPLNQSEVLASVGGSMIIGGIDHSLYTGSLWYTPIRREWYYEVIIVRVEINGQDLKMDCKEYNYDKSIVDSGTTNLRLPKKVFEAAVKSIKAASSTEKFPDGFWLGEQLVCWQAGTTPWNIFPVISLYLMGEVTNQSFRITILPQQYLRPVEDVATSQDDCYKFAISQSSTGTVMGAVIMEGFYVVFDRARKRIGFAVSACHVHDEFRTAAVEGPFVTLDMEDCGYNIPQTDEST

binding result: binds
B1: OM-99-2 (peptide)
peptide: EVNLAAEF
modifications: also: L4-A5 as hydroxyethylene isostere (2R,4S,5S)-5-amino-4-hydroxy-2,7-dimethyl-octanoyl
notes: also called Bachem catalog # H-5108
